Reference: article PMC11767649, “Two Cysteines in Raf Kinase Inhibitor Protein Make Differential Contributions to Structural Dynamics In Vitro” (Molecules, 2025)
Changes are numbered by the printed parent chain. Numbers in names are those of the source.

B1: rhRKIP C133S mutant, histidine-tagged (natural protein, human, UniProt P30086 1-187, looked up)
chain: MPVDLSKWSGPLSLQEVDEQPQHPLHVTYAGAAVDELGKVLTPTQVKNRPTSISWDGLDSGKLYTLVLTDPDAPSRKDPKYREWHHFLVVNMKGNDISSGTVLSDYVGSGPPKGTGLHRYVWLVYEQDRPLKSDEPILSNRSGDHRGKFKVASFRKKYELRAPVAGTCYQAEWDDYVPKLYEQLSGK
notes: human RKIP (PEBP1), cDNA GenBank NM_002567 in pET28B+, site-directed mutant; Same construct as m1 with the point mutation; source: E. coli BL21(DE3), purified (Ni-NTA)
B2: rhRKIP Ser153 to alanine mutant, histidine-tagged (natural protein, human, UniProt P30086 1-187, looked up)
chain: B1 chain with S133C, S153A
notes: human RKIP (PEBP1), cDNA GenBank NM_002567 in pET28B+, site-directed mutant; Same construct as m1 with the point mutation; also called S153A; source: E. coli BL21(DE3), purified (Ni-NTA)
B3: rhRKIP C168A mutant, histidine-tagged (natural protein, human, UniProt P30086 1-187, looked up)
chain: B1 chain with S133C, C168A
notes: as for B1
B4: rhRKIP Ser153 to aspartate mutant, histidine-tagged (natural protein, human, UniProt P30086 1-187, looked up)
chain: B1 chain with S133C, S153D
notes: human RKIP (PEBP1), cDNA GenBank NM_002567 in pET28B+, site-directed mutant; Same construct as m1 with the point mutation; also called S153D; source: E. coli BL21(DE3), purified (Ni-NTA)
B5: rhRKIP C168S mutant, histidine-tagged (natural protein, human, UniProt P30086 1-187, looked up)
chain: B1 chain with S133C, C168S
notes: as for B1
B6: rhRKIP Ser153 to glutamate mutant, histidine-tagged (natural protein, human, UniProt P30086 1-187, looked up)
chain: B1 chain with S133C, S153E
notes: human RKIP (PEBP1), cDNA GenBank NM_002567 in pET28B+, site-directed mutant; Same construct as m1 with the point mutation; also called S153E; source: E. coli BL21(DE3), purified (Ni-NTA)

Legend:
[1] = molecular target: the molecule itself; experiment: non-reducing SDS-PAGE; purified rhRKIP in sample loading buffer without β-mercaptoethanol or boiling; Coomassie Brilliant Blue staining or anti-His immunoblot
[2] = molecular target: the molecule itself; experiment: LC Q-TOF mass spectrometry; purified rhRKIP WT and mutant proteins in buffer at pH 7.4; peaks around 22 kDa (monomer) and 44 kDa (dimer)

Protein | stoichiometry N [1] | stoichiometry N [2]
B1 | 2 | 
B2 | 2 | 
B3 |  | 2
B4 | 2 | 
B5 | 2 | 
B6 | 2 | 
